# In the DeepSol protein solubility set:
# Assay: soluble on expression in E. coli; label from the status in PepcDB or PDB records
row,Sequence,soluble on expression in E. coli
1,MCVRLENENFKAELSESGAELTSLKSKNTDNEYIWTANSSYWGRHAPILFPIVGKVKDNKYRIADKVYNLSQHGFARDMEFEVEDNASDRAVFKLVWNDETLEKYPYKFELRVIYVLKDSTVDVTYNVKNVDDKDIFFSIGAHPGFNCPVIGKQSENDELQFEDYYIEFEKRETTGVVKLNSSNLLSRNTSPFLYASNILNLSEKLFKQGALILKDLDSTSISLKNDKNTTSVTVSFEGFPYVGLWSKPEGAPFVCIEPWFGHADYEDFNGDFREKEDGLKLEVGKEFECTYSITIGELEHHHHHH,soluble
2,MAHHHHHHMGGPPRKREREGEALKPKSKEEQLPIKNECTLDRREGKQIVAEKWSEVVVDDNESQERSNESVSESQVYDTEEELLAAGEDLSGDALKDFLRKNFVDFIDEKVARVGDLDLMN,not soluble
3,MGSDKIHHHHHHMKHAYLIIAHNEFEILKRLIQALDDERNDIYIHFDRKLNHYPDCRTSYAKLTFLEERMDVRWGDISVVDAEFALFDEAYRRGEYSYYHLLSGVDMPLKTQNYIHRFFEKNAGKEFVGYYQGNISKEIDRKVCRWHLFPKSFKETEGGLAVTKRVLRAGCVRLQSLLGIRRNKDINFRKGTQWLSISNELVGYLLQQQKEVRRVYTHTFCADEIFVQTICWNSSFRDRVYDMHDEGHGCLRMIGWKDNQLEEWKEKDFEILMNSEALFARKFSIRHIEVVDQILNEISK,not soluble
4,MSKLSFRARALDASKPLPVFRCEDLPDLHEYASINRAVPQMPTGMEKEEESVMLRFFSLYFYRLYPPSTRSLLCASLHKMAAMFLPDGNGDGAHTSPLVIPHSGWLVGLIRISL,not soluble
5,MGSDKIHHHHHHMNTLVDAGFSPRREGFAPQPLIEALLSILPAHCVLHREEDTRPYECDGLSLYRALPAVVALPEDEAQVRAIMQLCKRMNVPIVARGAGTGLSGGAMPHAQGVLLGLSKLNRIKRIDPAGGTAVVEPGVRNLAISEAAAPYGLYYAPDPSSQIACSIGGNVAENSGGVHCLKYGLTVHNVLRVRVVTIDGEIVELGSEAPDAPGLDLLSVFVGSEGMLGVVTEITVKLIPSPACAQVVMASFASVEAAGNAVTQIIAAGLIPAGLEMMDRQAVHMVEPFVQAGYDLQAQAILLCEADGTPQEVAHEVAMMEAVFKRAGATSLQVSGSEAERLRFWAGRKNAFPAAGRVSPDYYCMDGTIPRRHLARVLGAIEQMEDDFGLRCANVFHAGDGNLHPLILFDSNKPDEVERAEKFGAAILELCVQVGGTVTGEHGVGMEKINQMCVQFSRDELDAFLAVKRAFDPPGLLNPEKVIPTLARCAEYGKMHVHAGEMRFPDLARF,not soluble
6,MAKKTSSGRGKLPPGPTPLPVIGNILQIGIKDISKSLTNLSKVYGPVFTLYFGLKPIVVLHGYEAVKEALIDLGEEFSGRGIFPLAERANRGFGIVFSNGKKWKEIRRFSLMTLRNFGMGKRSIEDRVQEEARCLVEELRKTKASPCDPTFILGCAPCNVICSIIFHKRFDYKDQQFLNLMEKLNENIKILSSPWIQICNNFSPIIDYFPGTHNKLLKNVAFMKSYILEKVKEHQESMDMNNPQDFIDCFLMKMEKEKHNQPSEFTIESLENTAVDLFGAGTETTSTTLRYALLLLLKHPEVTAKVQEEIERVIGRNRSPCMQDRSHMPYTDAVVHEVQRYIDLLPTSLPHAVTCDIKFRNYLIPKGTTILISLTSVLHDNKEFPNPEMFDPHHFLDEGGNFKKSKYFMPFSAGKRICVGEALAGMELFLFLTSILQNFNLKSLVDPKNLDTTPVVNGFASVPPFYQLCFIPIHHHH,soluble
7,SIVHHAKERLILCSPYFIPDESLLEAVTSACYRGVTVELFVSEQADQFAIDHAQSSYYQALLEAGVKIYQFPKPDVLHTKYMIADPDDTTGNEALGVLGSSNLDIRSFGLNYEISLMIAKGNLIHELNALTDRYRTVSFKLTLDKWNQRSWRRRYVDNVMRLTSALQ,not soluble
8,MAKKLFAFLGIGDYKSVEYYFQNKKEGYKTEYIQEAITKLLNEQDLNVTVFVTAEARKKHWEPENNKGLESRLKKLNINCKAVNIPDGKANDDVWKIFTSVYSEIEFNDEIYVDVTHSLRNIPIIFMSVLNYAKVTKNCTIKGIFYGAYEAKENERAPIYDLTLFDQIGEWSSGVEQLLTTGECEMFCSTVEKTLDPLLREAKGKDELIKLVKKCSKLIKEFYTDLKLVRGKSVLEDGRKLYQVLCEIKALNTEKHITMQPFFHILERVENQVAFFQNENLIENILECVKLCKKFGQYQQAYTFLRENIINYVCINTGLDWKKEDPDRLKAEELIGKLYMRKIKKVQIEVSEDIKSILENGEDFICDDAIELFGELIEFRNDLDHAQFRMINPSKDKITCKLDSFIERFEKYYISK,not soluble
9,EAQIYGYVEKATLIDQNLTLSAKLDTGAKSASLHAVNITEIEKKGIPYLRFTVPTKTGDYSFEGEYVGKVKIKVRSSETNPGLLRTTPIKRPVVLLNIKLGDKVRTIKVNLTNRKRFLYPLLLGRDAIIDFNGAVDPALTFTTKSK,not soluble
10,MKVTVIGCYGGFPAANEATSGYLFQSGDYSLLVDCGSAVLSKLFGYVPAEKLDAVVLSHYHHDHIADIGPLQFAKQVGSFLGKGEHTLPIYGHDADIEQFQKLTYKTHTKGIAYQPDQPLTAGPFTITFLKTIHPVTCYAMRITDGSHTVVYTADSSYQDSFIPFSKDADLLISECNFYADQDGTSAGHMNSLEAGRIAKEAGAGELLLTHLPHFGVHDNLRKEAKTVFNGEVNIAKSGFVWEG,soluble
11,MGKIVLTYRMPHNWNINPFLKEYQRLLQRAIDEIWDNTSWKEKKVKHRYSLGNEEYRYYETIRLIPYFPQSNDFKRGLRNKLLREWPFAKHYVDSAIKTAYSILKSWRQNYLKGRRKRVKPVVKRKFVRVKTTLMKVEGSKIRITIKPREEYLELDFSREWFYERIKDWKVGELIIRERDILLTFSKEVEFSGRIKIGIDSNLTSLDVYHPEKGWIRVDLSELHRISETYDRIIDMLKSIQRKAPKRIGLLLEKYWTRRRNRIEDYLNKLAVQLSREFPDAIFIFEGLNKFKMLQNGSRKFNRKLSRATWKKIVGKLSYRVPIEFVNPAYTSSTCPICGSKLESRNGLVECFNCGFKADRQFVGAFNILMRGLGVALSGVERDDLPPNEPRGELNAMRPKSVVRVDLNGRRFTHIHSLEHHHHHH,soluble
12,GHMAKAYKQAGVDIEAGYQAVALMKEHVQKTMRPEVLGGIGGFGGLFDLSALGYRQPVLISGTDGVGTKLKLAFLLDRHDTIGIDCVAMCVNDIIVQGAEPLFFLDYIACGKAVPEKIAAIVKGVADGCVEAGCALIGGETAEMPGMYDEDEYDLAGFAVGVAEKERLITGETIQAGDALVGLPSSGLHSNGYSLVRRIVFEQAKLSLDEIYEPLDVPLGEELLKPTRIYAKLLRSVRERFTIKGMAHITGGGLIENIPRMLPPGIGARIQLGSWPILPIFDFLREKGSLEEEEMFSVFNMGIGLVLAVSPETAAPLVEWLSERGEPAYIIGEVAKGAGVSFAGGGRA,soluble
13,MAVSEIKATMKLKPLKAPVFHKRDKDLRGSFSDHLKHKESKLSPAQLEAFRNAYNFFTKDRTGCIDSHGLISTIAKLGMNLNTYDIYNELKCADLDRDGKINFSDFINVLTDKKLFLKAVVPEKKICLDLANNPGILLFEILSKFVETSSLHRKDIIELVSYFRKRFQESHSEIMWSSYGRRGLKSEICSPPRSSTAAFANSARISIMKERDLYKFLEALKRCNLRTDSPYSKIPVFPLFPDVDGTVMGKPFKDTQKIEMLRRKEPLTFFEDYFFNKRDWKTQAMNVKPLKSASGYSDDILAIDHLFKKKQHWTVTDAAAIKQHVKKATESYNLGIALDHRKEMLNLWKKIRGDLVGIESNNESFYNTFSTYTWSWNVCQELLSAKDLRLHDASMNKSSPSNSGLSSPSDFSESDPETGRKRKRKSSRGFRQ,not soluble
14,RQNLSSDIDILQSDTMPANAELAGLLQVAVGDTLFRIKVLSKVENRVVDYATMFFPAARLPGLPDAYLRHRSVTRALDDCGVADYTRRFTRVTARLPDAETVDYLGIPKNRPVLHVKSLNVDGEGRPVQYGVTCFNGDLVQLVMEQE,not soluble
15,MGSDKIHHHHHHMKDEILIRYINKHCTATEEKEILEWLKEKDNRQRLFELEQIWGLKAEMRFSDKGRMDEAYRQLSRQLGLSGQIEKREKPIQRFTVREWWKYAAVLVAVCLFATNLFYITKEEPEAYNTVVVPKGQRVSLLLSDGTTVWLNAESRFSYPAKFSEKYRTVTLEGEGYFEVAHNPKCPFTVKLPMLNIRVLGTKFNAKAYLDEPSWITLKEGSVEVSTLDDRSKERMSPNDQVYYTVSDGLVLIRNSAQANVDSWTTGDLRFDNKTLKEMAKVIERRYDVKIRIMDSSLVEEYFTCHFRKDLTIAQAMELLKETRRVDYRIEKKTVYLYKK,not soluble
16,SNAMTEEHVVLLDEQDKPSGTLEKYAAHTLNTPLHLAFSCWLFNEDGQLLVTRRSLSKKAWPGVWTNSVCGHPQQGETTEEAIIRRCRFELGVEITDLTPVYPHFSYRATDPNGIVENEVCPVFAARATSVLQVNSEEVMDYQWSEFKSVWKSLLATPWAFSPWMVMQASDEQARERLLNYCQR,soluble
17,MSLKSGCSARQVCAGNTHFAVVTVEKELYTWVNMQGGTKLHGQLGHGDKASYRQPKHVEKLQGKAIHQVSCGDDFTVCVTDEGQLYAFGSDYYGCMGVDKVAGPEVLEPMQLNFFLSNPVEQVSCGDNHVVVLTRNKEVYSWGCGEYGRLGLDSEEDYYTPQKVDVPKALIIVAVQCGCDGTFLLTQSGKVLACGLNEFNKLGLNQCMSGIINHEAYHEVPYTTSFTLAKQLSFYKIRTIAPGKTHTAAIDERGRLLTFGCNKCGQLGVGNYKKRLGINLLGGPLGGKQVIRVSCGDEFTIAATDDNHIFAWGNGGNGRLAMTPTERPHGSDICTSWPRPIFGSLHHVPDLSCRGWHTILIVEKVLNSKTIRSNSSGLSIGTVFQSSSEGHHHHHH,not soluble
18,PSARDILQQGLDRLGSPEDLASRIDSTLLSPRATEEDVRNLVREASDYGFRCAVLTPVYTVKISGLAEKLGVKLCSVIGFPLGQAPLEVKLVEAQTVLEAGATELDVVPHLSLGPEAVYREVSGIVKLAKSYGAVVKVILEAPLWDDKTLSLLVDSSRRAGADIVKTSTGVYTKGGDPVTVFRLASLAKPLGMGVKASGGIRSGIDAVLAVGAGADIIGTSSAVKVLESFKSLV,soluble
19,MGLDTIEKGADGLDSIKSLAFVYGETDNPYTKTSELFTWLFGHEIADTVLLLLNDHIYILGSNRKVEFFGSVTGDNQSSGKVPTVSTLLRDKTDKDAGNFEKLIDHIKSAGGDVGNFVKEKFSSEFVSSWNKALEEGGVNKNDVTLAFTHLFAVKDDKEMDLIRKSAQATTASWTAARARYVEISDNEKVLIVLKIVELGVLLRVRHSVLSNQFAAFMKDSKVQQALAKYEADTCYDPIKMLIFVDRKYDSVVVPIFGIPVPFHISMIKNCSQSVEGDLTYLRINFATPGSQVGKDSGQFPHPLAHYMKEFTFRASNIKDHHSDSTAPSRNLSTAFRFIKEMQKRFKSEEAEQREKEGAVKQDKLILSQNKLNPKLNLLICPNIIQKLITGSLEAHTNGFRFLFNSFSRYTSLRAFFEEGGWSFLNAESDNEEAMDDSDDSDAYDPEEEDASAGSGSESDEDESEGEETESDDDDEGSLDSDEFVQPIFAF,not soluble
